{"source": "patent US20130184211A1", "about": "(NEW YORK UNIVERSITY, published 2013)", "key": {"[1]": {"target": "FGFR-Klotho complex of opossum kidney OKP cells (opossum)", "assay": "cell-based or functional assay"}, "[2]": {"target": "T1, 1:1 binary complex of the ectodomains of FGFR1c and Klotho (human; murine, UniProt O35082 35-982)", "T1 construct": "range 35-982; also called FGFR1c-Klotho complex; binary FGFR1c-Klotho complex; not shown: C-terminal FLAG tag", "T1 sequence 1": "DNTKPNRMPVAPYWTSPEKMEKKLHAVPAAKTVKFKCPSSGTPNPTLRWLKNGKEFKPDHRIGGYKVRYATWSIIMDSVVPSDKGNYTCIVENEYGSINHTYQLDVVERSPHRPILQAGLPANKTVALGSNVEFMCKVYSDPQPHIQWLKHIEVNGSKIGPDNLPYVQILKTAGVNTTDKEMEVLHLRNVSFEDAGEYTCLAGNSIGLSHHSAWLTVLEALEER", "T1 sequence 2": "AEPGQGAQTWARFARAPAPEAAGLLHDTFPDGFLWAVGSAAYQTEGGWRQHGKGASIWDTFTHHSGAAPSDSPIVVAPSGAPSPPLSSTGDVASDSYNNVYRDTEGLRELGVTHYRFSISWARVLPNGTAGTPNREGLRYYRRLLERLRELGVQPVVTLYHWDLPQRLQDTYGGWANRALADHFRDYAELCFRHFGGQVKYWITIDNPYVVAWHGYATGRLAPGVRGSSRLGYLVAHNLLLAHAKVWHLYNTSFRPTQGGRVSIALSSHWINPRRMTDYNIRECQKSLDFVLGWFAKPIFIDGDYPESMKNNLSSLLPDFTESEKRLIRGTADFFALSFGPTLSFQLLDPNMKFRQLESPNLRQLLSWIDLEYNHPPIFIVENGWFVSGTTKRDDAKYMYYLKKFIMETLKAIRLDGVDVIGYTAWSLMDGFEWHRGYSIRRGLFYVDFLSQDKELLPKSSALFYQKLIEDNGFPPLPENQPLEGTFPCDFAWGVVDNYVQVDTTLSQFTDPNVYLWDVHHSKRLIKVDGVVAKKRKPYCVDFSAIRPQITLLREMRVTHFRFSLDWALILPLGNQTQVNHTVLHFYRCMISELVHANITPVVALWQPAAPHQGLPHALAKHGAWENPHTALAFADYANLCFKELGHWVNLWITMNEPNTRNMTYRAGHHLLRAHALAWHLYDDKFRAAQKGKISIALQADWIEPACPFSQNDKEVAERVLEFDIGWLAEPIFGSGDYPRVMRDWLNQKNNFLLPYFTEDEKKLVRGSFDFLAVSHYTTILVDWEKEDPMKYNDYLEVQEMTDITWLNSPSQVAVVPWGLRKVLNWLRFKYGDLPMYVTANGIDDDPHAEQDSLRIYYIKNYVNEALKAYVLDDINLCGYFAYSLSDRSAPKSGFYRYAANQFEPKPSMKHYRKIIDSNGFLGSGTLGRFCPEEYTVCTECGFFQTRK", "assay": "SPR competition dose-response: FGF23^180-251 mixed with a fixed concentration of FGFR1c-Klotho, immobilized FGF23^28-251 as competitor; averaged data of two to three experiments", "procedure": "Increasing concentrations of FGF23²⁸⁻²⁵¹ (0-50 nM) were mixed with a fixed concentration of 1:1 complex of the ectodomains of FGFR1c and Klotho (15 nM and 20 nM, respectively) in HBS-EP buffer, and the mixtures were passed over the FGF23 chip. In the other—reverse—assay, FGF23¹⁸⁰⁻²⁵¹ was immobilized on a chip (˜48.4 fmole/mm² of flow channel). Increasing concentrations of FGF23²⁸⁻²⁵¹ (0-50 nM) were mixed with a fixed concentration of 1:1 complex of the ectodomains of FGFR1c and Klotho (20 nM) in HBS-EP buffer, and the mixtures were passed over the chip. As a control, competition of FGF23 C-terminal tail peptide in solution with immobilized FGF23 C-terminal tail peptide for binding to the binary FGFR1c-Klotho complex was studied. Increasing concentrations of FGF23¹⁸⁰⁻²⁵¹ (0-400 nM) were mixed with a fixed concentration of 1:1 complex of the ectodomains of FGFR1c and Klotho (20 nM) in HBS-EP buffer, and the mixtures were passed over the FGF23¹⁸⁰⁻²⁵¹ chip.\nTo fully nail down that the C-terminal tail of FGF23 mediates FGF23 binding to the binary FGFR1c-Klotho complex, a fixed concentration of FGFR1c-Klotho was mixed with increasing concentrations of FGF23¹⁸⁰⁻²⁵¹, and the mixtures were passed over the FGF23 chip. Mixtures of FGF23²⁸⁻²⁵¹ with FGFR1c-Klotho were used as a control. […]"}}, "data": [{"binder": "N-terminally hexahistidine-tagged 72-amino acid C-terminal tail of human FGF23 (S180 to I251), FGF23^180-251 (Expressed in E. coli; also called FGF23 C-terminal tail peptide; C-terminal tail of FGF23; not shown: N-terminal hexahistidine tag (six His)) peptide: SAEDDSERDPLNVLKPRARMTPAPASCSQELPSAEDNSPMASDPLGVVRGGRVNTHAGGTGPEGCRPFAKFI", "values": [{"measurement": "antagonism of the inhibition of sodium-coupled phosphate uptake by FGF23^28-251 in OKP cells, IC50", "setting": "[1]", "result": "~21", "unit": "nM"}, {"measurement": "IC50 (read off the curve)", "setting": "[2]", "result": "~50", "unit": "nM"}]}]}
